Experimental data reported in patent US20220332804A1 (CSL INNOVATION, published 2022).

Columns and labels:
Assay in all cases: SPR, antibody captured, C2 as analyte;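 further: biacore SPR at 37 °C, anti-C2 mAbs captured via goat anti-human IgG on CM5 chips, double-referenced sensorgrams fit to a 1:1 kinetic or steady-state model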
human C2 A472S = target: T1, human C2 A472S (human, UniProt P06681 21-752)
T1 sequence: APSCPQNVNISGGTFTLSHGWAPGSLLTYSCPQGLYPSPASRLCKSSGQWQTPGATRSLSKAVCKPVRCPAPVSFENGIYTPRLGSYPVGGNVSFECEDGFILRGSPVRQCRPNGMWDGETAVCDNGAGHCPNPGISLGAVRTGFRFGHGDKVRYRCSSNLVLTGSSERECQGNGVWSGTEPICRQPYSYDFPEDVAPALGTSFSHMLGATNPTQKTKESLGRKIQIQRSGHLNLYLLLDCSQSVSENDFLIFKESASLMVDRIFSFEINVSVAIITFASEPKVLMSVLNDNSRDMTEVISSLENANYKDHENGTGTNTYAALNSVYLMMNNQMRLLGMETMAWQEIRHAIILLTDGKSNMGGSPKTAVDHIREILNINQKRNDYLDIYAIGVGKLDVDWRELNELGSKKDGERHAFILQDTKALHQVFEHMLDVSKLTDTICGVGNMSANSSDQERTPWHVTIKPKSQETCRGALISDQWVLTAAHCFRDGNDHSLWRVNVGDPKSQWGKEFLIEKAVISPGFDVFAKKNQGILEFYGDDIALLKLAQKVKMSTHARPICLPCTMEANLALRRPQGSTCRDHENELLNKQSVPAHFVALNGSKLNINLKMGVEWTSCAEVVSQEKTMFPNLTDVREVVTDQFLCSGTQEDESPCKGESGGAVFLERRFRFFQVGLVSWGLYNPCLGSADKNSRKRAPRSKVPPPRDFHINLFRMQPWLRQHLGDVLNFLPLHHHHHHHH

human C2 M316A = target: T2, human C2 M316A (human, UniProt P06681 21-752)
T2 sequence: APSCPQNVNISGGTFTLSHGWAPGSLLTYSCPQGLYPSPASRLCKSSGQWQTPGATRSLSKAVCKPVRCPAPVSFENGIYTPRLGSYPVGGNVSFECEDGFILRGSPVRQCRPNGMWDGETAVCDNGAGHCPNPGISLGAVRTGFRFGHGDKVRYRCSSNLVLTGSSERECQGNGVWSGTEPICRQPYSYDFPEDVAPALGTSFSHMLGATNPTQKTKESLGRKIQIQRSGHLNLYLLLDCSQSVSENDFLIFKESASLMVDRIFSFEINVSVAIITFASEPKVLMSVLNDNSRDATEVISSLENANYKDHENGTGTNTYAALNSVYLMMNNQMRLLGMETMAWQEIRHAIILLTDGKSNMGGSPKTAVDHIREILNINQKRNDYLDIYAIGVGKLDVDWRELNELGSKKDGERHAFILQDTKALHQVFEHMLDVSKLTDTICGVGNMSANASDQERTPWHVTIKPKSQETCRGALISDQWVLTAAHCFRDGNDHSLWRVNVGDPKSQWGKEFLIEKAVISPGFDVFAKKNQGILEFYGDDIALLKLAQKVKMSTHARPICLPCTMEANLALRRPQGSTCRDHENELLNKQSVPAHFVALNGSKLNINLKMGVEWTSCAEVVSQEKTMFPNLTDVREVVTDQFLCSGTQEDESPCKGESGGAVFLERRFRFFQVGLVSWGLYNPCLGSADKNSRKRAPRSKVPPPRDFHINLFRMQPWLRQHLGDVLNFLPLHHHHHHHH

human C2 E476A = target: T3, human C2 E476A (human, UniProt P06681 21-752)
T3 sequence: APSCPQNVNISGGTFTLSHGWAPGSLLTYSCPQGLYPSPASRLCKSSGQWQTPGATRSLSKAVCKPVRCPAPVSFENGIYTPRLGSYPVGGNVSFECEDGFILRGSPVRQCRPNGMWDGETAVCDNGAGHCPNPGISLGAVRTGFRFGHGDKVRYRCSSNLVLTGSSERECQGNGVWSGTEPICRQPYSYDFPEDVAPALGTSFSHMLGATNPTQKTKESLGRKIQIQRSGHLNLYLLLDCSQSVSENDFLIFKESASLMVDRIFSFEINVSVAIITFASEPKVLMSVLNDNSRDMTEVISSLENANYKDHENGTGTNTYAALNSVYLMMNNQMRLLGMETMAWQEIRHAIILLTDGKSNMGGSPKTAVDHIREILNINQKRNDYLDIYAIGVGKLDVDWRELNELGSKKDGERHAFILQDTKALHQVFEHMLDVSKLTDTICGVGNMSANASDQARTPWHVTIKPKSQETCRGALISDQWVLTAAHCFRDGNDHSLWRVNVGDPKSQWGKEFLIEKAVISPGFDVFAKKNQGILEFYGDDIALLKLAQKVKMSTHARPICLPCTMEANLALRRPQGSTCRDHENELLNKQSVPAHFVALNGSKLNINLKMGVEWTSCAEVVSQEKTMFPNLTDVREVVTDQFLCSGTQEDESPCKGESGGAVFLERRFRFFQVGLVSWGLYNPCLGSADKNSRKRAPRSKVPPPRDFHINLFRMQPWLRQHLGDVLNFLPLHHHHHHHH

human C2 N621A = target: T4, human C2 N621A (human, UniProt P06681 21-752)
T4 sequence: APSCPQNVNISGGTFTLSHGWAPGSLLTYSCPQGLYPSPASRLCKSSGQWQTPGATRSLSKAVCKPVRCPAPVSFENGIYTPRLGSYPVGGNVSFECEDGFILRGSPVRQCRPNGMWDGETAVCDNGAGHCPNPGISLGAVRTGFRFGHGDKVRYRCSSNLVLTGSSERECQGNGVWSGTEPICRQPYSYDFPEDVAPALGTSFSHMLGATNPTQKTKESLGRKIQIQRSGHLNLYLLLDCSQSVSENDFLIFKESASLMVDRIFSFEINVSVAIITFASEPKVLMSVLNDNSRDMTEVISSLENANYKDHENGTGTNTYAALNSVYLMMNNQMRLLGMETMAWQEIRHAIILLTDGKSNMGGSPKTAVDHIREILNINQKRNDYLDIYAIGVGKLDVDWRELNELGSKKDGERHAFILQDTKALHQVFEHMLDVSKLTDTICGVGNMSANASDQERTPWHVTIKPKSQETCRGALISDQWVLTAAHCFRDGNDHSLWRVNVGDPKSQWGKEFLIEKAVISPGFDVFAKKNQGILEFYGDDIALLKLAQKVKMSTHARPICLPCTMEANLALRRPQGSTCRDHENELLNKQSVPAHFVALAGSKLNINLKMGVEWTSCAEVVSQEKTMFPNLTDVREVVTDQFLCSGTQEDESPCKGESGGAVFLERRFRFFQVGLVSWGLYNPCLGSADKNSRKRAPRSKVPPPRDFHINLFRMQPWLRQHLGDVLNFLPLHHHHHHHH

B1: RF16-226 (antibody, human IgG4 S228P, lambda)
heavy: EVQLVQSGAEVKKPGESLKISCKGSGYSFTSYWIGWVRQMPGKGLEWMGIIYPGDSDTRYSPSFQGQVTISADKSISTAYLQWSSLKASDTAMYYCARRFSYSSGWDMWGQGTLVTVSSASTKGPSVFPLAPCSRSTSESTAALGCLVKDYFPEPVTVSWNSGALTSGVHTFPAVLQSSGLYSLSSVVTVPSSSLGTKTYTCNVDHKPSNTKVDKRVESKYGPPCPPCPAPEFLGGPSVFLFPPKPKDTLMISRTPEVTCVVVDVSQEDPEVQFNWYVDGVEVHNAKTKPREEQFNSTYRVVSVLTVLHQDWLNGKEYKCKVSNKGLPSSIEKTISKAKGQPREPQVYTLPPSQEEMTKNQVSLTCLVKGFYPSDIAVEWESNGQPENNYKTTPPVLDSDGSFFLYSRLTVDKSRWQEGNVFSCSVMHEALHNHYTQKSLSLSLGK
light: SYELTQPPSVSVSPGQTARITCSGDALTSKYVAWYQQKSGLAPLLVIYEDTRRPSGIPAKFSGSSSGSVATLTISGAHGDDEADYYCYSTDASGHQRVFGGGTKLTVLSQPKAAPSVTLFPPSSEELQANKATLVCLISDFYPGAVTVAWKADGSPVKAGVETTKPSKQSNNKYAASSYLSLTPEQWKSHRSYSCQVTHEGSTVEKTVAPTECS
notes: pH-dependent anti-C2 antibody from a phage display library; also called WT
Human C2 A472S
  Kd: 0.053 µM
Human C2 M316A
  Kd: 0.0123 µM
Human C2 E476A
  Kd: 0.0196 µM
Human C2 N621A
  Kd: 0.0515 µM
